Target: SARS 2-Helix (single-chain fusion core of SARS-CoV spike protein: HR1, 22-amino acid linker, HR2) (SARS coronavirus GZ02)
Test: crystal structure

“SARS 2-Helix (single-chain fusion core of SARS-CoV spike protein: HR1, 22-amino acid linker, HR2) (domain or fragment)” showed a stoichiometry N of 3.

From paper PMC8008698
